Experimental findings from PMC2415180 (BMC Biotechnology, 2008) are described below.

For data set [1], the target named is BChE/hSA fusion protein (recombinant human butyrylcholinesterase fused to human serum albumin) in the milk of transgenic goats (human) (UniProt P06276). Briefly: SEC + native gel or EMSA. (In EMSA bound probe runs differently from free probe, usually more slowly.)
Data set [2] addresses BChE/hSA fusion protein (recombinant human butyrylcholinesterase fused to human serum albumin) in the milk of transgenic mice (human) (UniProt P06276). Put plainly: SEC + native gel or EMSA.
The data set “SEC” deals with the molecule itself. Briefly: SEC.

By stoichiometry N is commonly meant a count of units in the complex or per binding partner. With “BChE/hSA fusion protein (recombinant human butyrylcholinesterase fused to human serum albumin) in the milk of transgenic goats (from UniProt P06276 29-602; P02768 25-609) (enzyme)”, the stoichiometry N in data set [1] came out at 2.

With “BChE/hSA fusion protein (recombinant human butyrylcholinesterase fused to human serum albumin) in the milk of transgenic mice (from UniProt P06276 29-602; P02768 25-609) (enzyme)”, the stoichiometry N in data set [2] was found to be 2.

B1: recombinant human butyrylcholinesterase produced transgenically in goat milk, tetramer-enriched preparation (>70% tetramer) (enzyme, UniProt P06276 29-602, looked up)
chain: EDDIIIATKNGKVRGMNLTVFGGTVTAFLGIPYAQPPLGRLRFKKPQSLTKWSDIWNATKYANSCCQNIDQSFPGFHGSEMWNPNTDLSEDCLYLNVWIPAPKPKNATVLIWIYGGGFQTGTSSLHVYDGKFLARVERVIVVSMNYRVGALGFLALPGNPEAPGNMGLFDQQLALQWVQKNIAAFGGNPKSVTLFGESAGAASVSLHLLSPGSHSLFTRAILQSGSFNAPWAVTSLYEARNRTLNLAKLTGCSRENETEIIKCLRNKDPQEILLNEAFVVPYGTPLSVNFGPTVDGDFLTDMPDILLELGQFKKTQILVGVNKDEGTAFLVYGAPGFSKDNNSIITRKEFQEGLKIFFPGVSEFGKESILFHYTDWVDDQRPENYREALGDVVGDYNFICPALEFTKKFSEWGNNAFFYYFEHRSSKLPWPEWMGVMHGYEIEFVFGLPLERRDNYTKAEEILSRSIVKRWANFAKYGNPNETQNNSTSWPVFKSTEQKYLTLNTESTRIMTKLRAQQCRFWTSFFPKVLEMTGNIDEAEWEWKAGFHRWNNYMMDWKNQFNDYTSKKESCVGL
notes: also called tetramer-enriched BChE; BChE produced transgenically (>70% tetramer)
Regarding B1, the “stoichiometry N” value in “SEC” came out at 4.
